Assay results: patent US20140322759
Numbering of substitutions follows the chain as printed.

What was measured:
Experiment in all cases: EMSA
[1] = target: T1, phi29 DNA polymerase E515A E515A (Bacillus phage phi29) (UniProt P03680); conditions: SD 56.5; unit not given (μM in assay); pH 7.9, 66 mM K-acetate, 30 C
T1 sequence: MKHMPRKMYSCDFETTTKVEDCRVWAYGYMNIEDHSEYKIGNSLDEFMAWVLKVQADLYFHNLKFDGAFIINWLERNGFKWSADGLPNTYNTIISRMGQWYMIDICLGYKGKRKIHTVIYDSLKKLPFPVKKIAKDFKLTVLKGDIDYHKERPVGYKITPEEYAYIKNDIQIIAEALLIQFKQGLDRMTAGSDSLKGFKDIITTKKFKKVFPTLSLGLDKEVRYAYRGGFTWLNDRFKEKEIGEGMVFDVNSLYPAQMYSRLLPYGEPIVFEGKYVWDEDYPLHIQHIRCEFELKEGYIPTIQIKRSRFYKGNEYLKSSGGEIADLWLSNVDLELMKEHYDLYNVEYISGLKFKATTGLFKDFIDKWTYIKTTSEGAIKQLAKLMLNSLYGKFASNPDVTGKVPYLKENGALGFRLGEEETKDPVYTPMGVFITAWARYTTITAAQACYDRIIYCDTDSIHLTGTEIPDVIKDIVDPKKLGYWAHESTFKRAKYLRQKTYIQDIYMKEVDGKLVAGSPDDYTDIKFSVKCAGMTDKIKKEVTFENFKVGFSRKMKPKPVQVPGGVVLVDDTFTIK

[2] = target: T2, phi29 DNA polymerase M8R M8R (Bacillus phage phi29) (UniProt P03680); conditions: SD 2.1; unit not given (μM in assay); pH 7.9, 66 mM K-acetate, 30 C
T2 sequence: T1 sequence with M8R, A515E

[3] = target: T3, phi29 DNA polymerase Mut_4 M8R,V51A,M97T,G197D,E221K (Bacillus phage phi29) (UniProt P03680); conditions: SD 10.6; unit not given (μM in assay); pH 7.9, 66 mM K-acetate, 30 C
T3 sequence: T1 sequence with M8R, V51A, M97T, G197D, E221K, A515E

[4] = target: T4, phi29 DNA polymerase Q497P Q497P (Bacillus phage phi29) (UniProt P03680); conditions: SD 50.2; unit not given (μM in assay); pH 7.9, 66 mM K-acetate, 30 C
T4 sequence: T1 sequence with Q497P, A515E

GATCACAGTGAGTAC / TCTATTGTACTCACTGTGATC [15-mer/21-mer primer/template]
Kd [1]: 97 µM
Kd [2]: 43 µM
Kd [3]: 67 µM
Kd [4]: 73 µM
